One experiment concerns the target tri37_human TRIM37 (UniProt O94972).
The next experiment addresses pex3_human PEX3 (UniProt P56589).

Sequence of pex3_human PEX3 (P56589 whole entry): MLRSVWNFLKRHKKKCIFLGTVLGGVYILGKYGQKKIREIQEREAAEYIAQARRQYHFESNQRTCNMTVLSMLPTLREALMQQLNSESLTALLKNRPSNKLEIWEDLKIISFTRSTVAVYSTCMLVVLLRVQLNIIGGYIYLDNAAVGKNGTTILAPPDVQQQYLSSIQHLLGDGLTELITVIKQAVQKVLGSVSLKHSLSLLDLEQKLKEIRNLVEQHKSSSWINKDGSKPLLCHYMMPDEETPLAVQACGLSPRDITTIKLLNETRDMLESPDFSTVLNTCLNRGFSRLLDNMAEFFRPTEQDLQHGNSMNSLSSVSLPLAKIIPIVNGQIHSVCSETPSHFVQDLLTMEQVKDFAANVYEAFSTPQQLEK
Sequence of tri37_human TRIM37 (O94972 whole entry): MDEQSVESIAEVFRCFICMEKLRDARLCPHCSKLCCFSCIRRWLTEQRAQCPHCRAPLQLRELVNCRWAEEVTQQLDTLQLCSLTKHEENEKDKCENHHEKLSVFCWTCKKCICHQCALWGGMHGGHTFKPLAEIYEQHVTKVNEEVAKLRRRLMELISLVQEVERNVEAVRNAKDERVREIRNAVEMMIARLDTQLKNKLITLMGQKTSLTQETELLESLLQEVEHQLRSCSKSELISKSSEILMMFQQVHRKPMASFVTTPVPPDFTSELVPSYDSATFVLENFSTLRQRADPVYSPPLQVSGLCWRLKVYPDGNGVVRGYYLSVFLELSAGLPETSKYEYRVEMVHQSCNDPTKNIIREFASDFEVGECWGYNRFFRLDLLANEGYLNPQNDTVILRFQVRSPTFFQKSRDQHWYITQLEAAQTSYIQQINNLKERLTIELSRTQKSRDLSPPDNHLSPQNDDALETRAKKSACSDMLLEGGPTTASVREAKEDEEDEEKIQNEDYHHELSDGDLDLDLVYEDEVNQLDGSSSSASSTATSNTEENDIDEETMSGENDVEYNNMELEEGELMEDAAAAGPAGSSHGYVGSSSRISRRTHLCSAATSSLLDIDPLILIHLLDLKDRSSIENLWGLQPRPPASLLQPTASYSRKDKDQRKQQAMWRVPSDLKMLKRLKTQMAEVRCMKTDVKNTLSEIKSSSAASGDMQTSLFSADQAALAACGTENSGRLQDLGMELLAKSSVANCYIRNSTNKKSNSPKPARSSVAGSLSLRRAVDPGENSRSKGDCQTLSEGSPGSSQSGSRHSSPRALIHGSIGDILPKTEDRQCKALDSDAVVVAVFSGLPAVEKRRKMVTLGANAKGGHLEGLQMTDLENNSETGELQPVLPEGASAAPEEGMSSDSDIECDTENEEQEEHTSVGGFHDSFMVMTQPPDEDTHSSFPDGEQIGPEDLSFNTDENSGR
Sequence of Peroxisomal membrane protein PEX16 (Homo sapiens), Q9Y5Y5 W189G (Q9Y5Y5 whole entry W189G): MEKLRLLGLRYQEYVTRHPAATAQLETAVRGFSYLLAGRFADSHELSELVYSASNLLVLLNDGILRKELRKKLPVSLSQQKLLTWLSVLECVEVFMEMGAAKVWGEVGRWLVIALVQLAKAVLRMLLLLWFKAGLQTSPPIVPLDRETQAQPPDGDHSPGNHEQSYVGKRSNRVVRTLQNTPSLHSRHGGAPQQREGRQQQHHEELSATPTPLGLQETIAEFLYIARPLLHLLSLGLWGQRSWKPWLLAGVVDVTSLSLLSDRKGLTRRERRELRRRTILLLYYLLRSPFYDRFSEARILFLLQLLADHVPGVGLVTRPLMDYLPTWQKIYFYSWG
Sequence of Peroxisomal membrane protein PEX16 (Homo sapiens), Q9Y5Y5 K169A (Q9Y5Y5 whole entry K169A): as the sequence (Q9Y5Y5 whole entry W189G) above, with K169A, G189W counted along it

Regarding “Bifunctional polynucleotide phosphatase/kinase (Homo sapiens), Q96T60 P112R”, the “effect of a mutation on the interaction” value in the experiment with tri37_human TRIM37 is on record as “with no effect”.
Take “Bifunctional polynucleotide phosphatase/kinase (Homo sapiens), Q96T60 S114D”: the “effect of a mutation on the interaction” value in the experiment with tri37_human TRIM37 is reported as “with no effect”.
Consider “Peroxisomal membrane protein PEX16 (Homo sapiens), Q9Y5Y5 K169A”, for which, in the experiment with pex3_human PEX3, the “effect of a mutation on the interaction” value is listed as “with no effect”.
On to “Peroxisomal membrane protein PEX16 (Homo sapiens), Q9Y5Y5 W189G”, for which the “effect of a mutation on the interaction” value with pex3_human PEX3 is listed as “with no effect”.

(Values after IntAct's records for PubMed 38225382.)
